Laboratory results reported in patent US20180296701A1.

Biological target: CAR (receptor of the wild-type Ad) (human) (UniProt P78310)
Assay: cell-based or functional assay

Sequence of UniProt P78310 (P78310 20-365): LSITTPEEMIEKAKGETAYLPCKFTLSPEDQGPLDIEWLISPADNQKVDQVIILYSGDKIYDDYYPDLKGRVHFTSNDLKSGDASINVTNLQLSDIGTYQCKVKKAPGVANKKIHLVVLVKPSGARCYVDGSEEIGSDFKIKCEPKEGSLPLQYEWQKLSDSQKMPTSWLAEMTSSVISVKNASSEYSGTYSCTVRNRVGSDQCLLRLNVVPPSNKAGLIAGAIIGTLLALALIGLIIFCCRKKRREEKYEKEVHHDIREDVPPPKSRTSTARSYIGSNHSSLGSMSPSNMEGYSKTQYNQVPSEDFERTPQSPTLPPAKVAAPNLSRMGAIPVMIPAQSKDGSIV

Substance Ad knob protein has a decrease of intracellular introduction efficiency (GFP expression, flow cytometry) of wild-type Ad (naked dE1/GFP) in MIA PaCa-2 cells pre-treated with knob protein at 0.2 ug/mL of 76% and a decrease of intracellular introduction efficiency (GFP expression, flow cytometry) of wild-type Ad (naked dE1/GFP) in MIA PaCa-2 cells pre-treated with knob protein at 1 ug/mL of 92%.
